This passage reports self-cleavage results from the RNAGym collection of RNA variant scans (doi:10.7554/elife.80360).

To fix the notation:
B1: HDV Ribozyme (parent)
chain: GGCCGGCAUGGUCCCAGCCUCCUCGCUGGCGCCGGCUGGGCAACAUUCCGAGGGGACCGUCCCCUCGGUAAUGGCGAAUGGGACCCA

The data set covers variants of B1. As to the kind of experiment: self-cleavage, relative activity (ratio to wild type); higher = more cleavage; co-transcriptional.
Consider GGCCGGCAUGGUCCCAGCCUCCUCGCUGGCGCCGCCUGGGCAACAUUCCGAGGGGACCGUCCCCUCGGUAAUGGCGAAUGGGACCAA [G35C C86A], for which the self-cleavage was 0.212.

As for GGCCGGCAUGGUCCCAGCCUCCUCGCUGGCGCCGGCUGGGCAACAUUCCGAGGGGACCGUCCCCUCGGUAAUGGCGAAUUAGACCCA [G80U G81A], the self-cleavage amounted to 0.277.

Take GGCCGGCAUGGUCCCGGCCUCCUCGCUGGCGCCGGCUGGGCAACAUUCCGAGGGGACCGUCCCCUCGGUAAUGGCGAAUGGGACCGA [A16G C86G]: the self-cleavage worked out at 1.2.

Take GGCAGGCAUGGUCCCAGCCUCCUCGCUGGCGCCGGCUGGGCAACAUUCCGUGGGGACCGUCCCCUCGGUAAUGGCGAAUGGGACCCA [C4A A51U]: the self-cleavage was 0.145.

Take GGCCGGCAUGGUCCCAGCCUCCUCGCUUGCGCGGGCUGGGCAACAUUCCGAGGGGACCGUCCCCUCGGUAAUGGCGAAUGGGACCCA [G28U C33G]: the self-cleavage came to 0.212.

As for GGCCGGCAUGGUUCCAGCCUCCUCGCUGGCGCCGGCUGGGCAACAUUCCGAUGGGACCGUCCCCUCGGUAAUGGCGAAUGGGACCCA [C13U G52U], the self-cleavage turned out to be 0.394.

On to GGCCGGCAUGGUCCCAGCCUACUCGCUGGCGCCGGCUGGGCGACAUUCCGAGGGGACCGUCCCCUCGGUAAUGGCGAAUGGGACCCA [C21A A42G], for which the self-cleavage was determined as 0.158.

In the case of GGCCGGCAUGGUCCCAGCCUCCUCGUUGGCGCCGGCUGGGCAACAUUCCGAGGGGACCGUCCCCUCGGUAAUGGCGAAUGGCACCCA [C26U G82C], the self-cleavage worked out at 0.431.

As for GGCAGGCAUGGUCCCAGCCUCCUCGCUGGCGCCUGCUGGGCAACAUUCCGAGGGGACCGUCCCCUCGGUAAUGGCGAAUGGGACCCA [C4A G34U], the self-cleavage was found to be 0.831.

Take GGCCGGCAUGGUCCCAGCCUCCGCGCUGGCGCCGGCUGGGCAACAUUCCGAGGGGACCGUCCCCUCGGCAAUGGCGAAUGGGACCCA [U23G U69C]: the self-cleavage is 0.598.

As to GGCCGGCAUGGUCCCAGCCUCCUCGCUGGCGCCGGCUGGGCAAUAUUCCGAGGGGACCGUCCCCUCGGUAAUGGCGAAUGGUACCCA [C44U G82U], the self-cleavage came out at 0.282.

On to GGCCGGCAUGGUCCCAGCCUCCUCGCUGGCACCGGCUGGGCAACAUUCCGAGGGGACCGUCCCCUCGGUAAUGGGGAAUGGGACCCA [G31A C75G], for which the self-cleavage is 0.086.

As to GGCCGGCAUGGUCCCAGCCUCCUCGCUGGCGCCGGCUGCGCAACAUUCCGAGGGGACCGUCCCCUCGGUACUGGCGAAUGGGACCCA [G39C A71C], the self-cleavage amounted to 0.0978.

Turning to GGCCGGCAUGGUCCCAGCCUCCUCGCUGGCGCCGGCUGGGCAAUAUCCCGAGGGGACCGUCCCCUCGGUAAUGGCGAAUGGGACCCA [C44U U47C], the self-cleavage was 0.54.

Regarding GGACGGCAUGGUCCCAGCCUCCUCGCUGGCGCCGGCUGGGCAACACUCCGAGGGGACCGUCCCCUCGGUAAUGGCGAAUGGGACCCA [C3A U46C], the self-cleavage came out at 0.173.

In the case of GGCCGGCAUGGUCCCACCCUCCUCGCUGGCGCCGGCUGGGCAACAUUCCAAGGGGACCGUCCCCUCGGUAAUGGCGAAUGGGACCCA [G17C G50A], the self-cleavage stood at 0.148.

For the variant GGCCGGCAUGGUCCCCGCCUCCUCGCUGGCGCCGGCUGGGCAACAUUCCGAGGGGACCCUCCCCUCGGUAAUGGCGAAUGGGACCCA [A16C G59C], the self-cleavage was 0.974.

Consider GGCCGGCAUGGUCCCUGCCUCCUCGCUGGCGCCGGCUGGGCAACAUUCCGAGGGGACCGUCCCCUCGGUAAUGGCGAAUCGGACCCA [A16U G80C], for which the self-cleavage came to 0.145.

Turning to GGCCGGCAUGGUCCCAGCCUCCUCGCUGGCGCCGCCUGGGCAACAUUCCGAAGGGACCGUCCCCUCGGUAAUGGCGAAUGGGACCCA [G35C G52A], the self-cleavage was found to be 0.233.

With GGCCGGCAUGGUCCCAGCCUCCUCGCUGGCGCCGGCUUGGCAACAUUCCGAGGGGACCAUCCCCUCGGUAAUGGCGAAUGGGACCCA [G38U G59A], the self-cleavage stood at 0.181.

As to GGCCGGCAUGGUCCCAGCCUCAUCGCUGGCGCCGGCUGGGCAACAUUCCGAGGGGACCGUCCCCUCGGUAGUGGCGAAUGGGACCCA [C22A A71G], the self-cleavage was 0.393.

On to GGCCGGCAUGGUCUCAGCCUCCUCGCUGGCGCCGGCUGGACAACAUUCCGAGGGGACCGUCCCCUCGGUAAUGGCGAAUGGGACCCA [C14U G40A], for which the self-cleavage was 1.17.

Turning to GGCCGGCAUGGUCCCAGCCUCCUCGCUGGCGCCAGCUGGGCAACAUUCCGAGGGGACCGUCCCCUCGGUAUUGGCGAAUGGGACCCA [G34A A71U], the self-cleavage stood at 0.185.

Turning to GGCCGGCAUGGUCCCAGCCUCCUCGCUGGCGCCGGCUCGGCAACAUUCCGAGGGGACCGUGCCCUCGGUAAUGGCGAAUGGGACCCA [G38C C61G], the self-cleavage is 0.219.

On to GGCCGGCAUGGUCCCAGCCUCCUCGCUGGCGCCGGCUGGGCGACAUUACGAGGGGACCGUCCCCUCGGUAAUGGCGAAUGGGACCCA [A42G C48A], for which the self-cleavage is 0.7.

Turning to GGCCGGAAUGGUCCCAGCCUCCUCGCUCGCGCCGGCUGGGCAACAUUCCGAGGGGACCGUCCCCUCGGUAAUGGCGAAUGGGACCCA [C7A G28C], the self-cleavage was 0.0615.

GGCCGGCAUGGUCCCAGCCUCCUUGCUGACGCCGGCUGGGCAACAUUCCGAGGGGACCGUCCCCUCGGUAAUGGCGAAUGGGACCCA [C24U G29A]: the self-cleavage is 0.0415.

Turning to GGCCGGCACGGUCCCAGCCUCCUCGCUGGCGCCGGCUGGGCAACAUACCGAGGGGACCGUCCCCUCGGUAAUGGCGAAUGGGACCCA [U9C U47A], the self-cleavage turned out to be 1.11.

As to GGCCGACAUGGUCCCAGCCUCCUCGCUGGCGCCGGCUGGGCAACAUUCCGUGGGGACCGUCCCCUCGGUAAUGGCGAAUGGGACCCA [G6A A51U], the self-cleavage is 0.778.

Take GGCCGGCAUGGUCCCAGCCUCCUCGCUGGCGCCGGCUGGGCAAAAUUCCCAGGGGACCGUCCCCUCGGUAAUGGCGAAUGGGACCCA [C44A G50C]: the self-cleavage was determined as 0.702.

With GGCCGGCAUGGUCCCAGCUUCCUCGCUGGCGCCGGCUGGGCAACAUUCCGAGGGGACCGUCCCCUUGGUAAUGGCGAAUGGGACCCA [C19U C66U], the self-cleavage worked out at 0.22.

For the variant GGCCGGCAUGGUGCCAGCCUCCUCGCUGGCGCCGGCUGGGCAACAUUCCGAGGGGACCGGCCCCUCGGUAAUGGCGAAUGGGACCCA [C13G U60G], the self-cleavage came out at 0.
